Results reported in patent publication US20250262210A1 (TRUSTEES OF COLUMBIA UNIVERSITY IN THE CITY OF NEW YORK, published 2025).

How the values were obtained:
TUBGCP2 = TUBGCP2 (human, UniProt Q9BSJ2 1-902, limits assumed); experiment: IP/MS, LZTR1 wild type-FLAG, U87
In short: (§1)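 Read-out: spectral counts from LC-MS/MS (Orbitrap Fusion) after MaxQuant identification. Variable modifications were Met oxidation, protein N-terminal acetylation and N/Q deamidation.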

CDC42BPB = CDC42BPB (human, UniProt Q9Y5S2 1-1711); experiment: IP/MS, LZTR1 wild type-FLAG, U87
In short: as §1

PAPPA = PAPPA (human, UniProt Q13219 82-1627); experiment: IP/MS, LZTR1 wild type-FLAG, U87
In short: as §1

HTT = HTT (human, UniProt P42858 1-3142); experiment: IP/MS, LZTR1 wild type-FLAG, U87
Sequence of HTT (P42858 whole entry): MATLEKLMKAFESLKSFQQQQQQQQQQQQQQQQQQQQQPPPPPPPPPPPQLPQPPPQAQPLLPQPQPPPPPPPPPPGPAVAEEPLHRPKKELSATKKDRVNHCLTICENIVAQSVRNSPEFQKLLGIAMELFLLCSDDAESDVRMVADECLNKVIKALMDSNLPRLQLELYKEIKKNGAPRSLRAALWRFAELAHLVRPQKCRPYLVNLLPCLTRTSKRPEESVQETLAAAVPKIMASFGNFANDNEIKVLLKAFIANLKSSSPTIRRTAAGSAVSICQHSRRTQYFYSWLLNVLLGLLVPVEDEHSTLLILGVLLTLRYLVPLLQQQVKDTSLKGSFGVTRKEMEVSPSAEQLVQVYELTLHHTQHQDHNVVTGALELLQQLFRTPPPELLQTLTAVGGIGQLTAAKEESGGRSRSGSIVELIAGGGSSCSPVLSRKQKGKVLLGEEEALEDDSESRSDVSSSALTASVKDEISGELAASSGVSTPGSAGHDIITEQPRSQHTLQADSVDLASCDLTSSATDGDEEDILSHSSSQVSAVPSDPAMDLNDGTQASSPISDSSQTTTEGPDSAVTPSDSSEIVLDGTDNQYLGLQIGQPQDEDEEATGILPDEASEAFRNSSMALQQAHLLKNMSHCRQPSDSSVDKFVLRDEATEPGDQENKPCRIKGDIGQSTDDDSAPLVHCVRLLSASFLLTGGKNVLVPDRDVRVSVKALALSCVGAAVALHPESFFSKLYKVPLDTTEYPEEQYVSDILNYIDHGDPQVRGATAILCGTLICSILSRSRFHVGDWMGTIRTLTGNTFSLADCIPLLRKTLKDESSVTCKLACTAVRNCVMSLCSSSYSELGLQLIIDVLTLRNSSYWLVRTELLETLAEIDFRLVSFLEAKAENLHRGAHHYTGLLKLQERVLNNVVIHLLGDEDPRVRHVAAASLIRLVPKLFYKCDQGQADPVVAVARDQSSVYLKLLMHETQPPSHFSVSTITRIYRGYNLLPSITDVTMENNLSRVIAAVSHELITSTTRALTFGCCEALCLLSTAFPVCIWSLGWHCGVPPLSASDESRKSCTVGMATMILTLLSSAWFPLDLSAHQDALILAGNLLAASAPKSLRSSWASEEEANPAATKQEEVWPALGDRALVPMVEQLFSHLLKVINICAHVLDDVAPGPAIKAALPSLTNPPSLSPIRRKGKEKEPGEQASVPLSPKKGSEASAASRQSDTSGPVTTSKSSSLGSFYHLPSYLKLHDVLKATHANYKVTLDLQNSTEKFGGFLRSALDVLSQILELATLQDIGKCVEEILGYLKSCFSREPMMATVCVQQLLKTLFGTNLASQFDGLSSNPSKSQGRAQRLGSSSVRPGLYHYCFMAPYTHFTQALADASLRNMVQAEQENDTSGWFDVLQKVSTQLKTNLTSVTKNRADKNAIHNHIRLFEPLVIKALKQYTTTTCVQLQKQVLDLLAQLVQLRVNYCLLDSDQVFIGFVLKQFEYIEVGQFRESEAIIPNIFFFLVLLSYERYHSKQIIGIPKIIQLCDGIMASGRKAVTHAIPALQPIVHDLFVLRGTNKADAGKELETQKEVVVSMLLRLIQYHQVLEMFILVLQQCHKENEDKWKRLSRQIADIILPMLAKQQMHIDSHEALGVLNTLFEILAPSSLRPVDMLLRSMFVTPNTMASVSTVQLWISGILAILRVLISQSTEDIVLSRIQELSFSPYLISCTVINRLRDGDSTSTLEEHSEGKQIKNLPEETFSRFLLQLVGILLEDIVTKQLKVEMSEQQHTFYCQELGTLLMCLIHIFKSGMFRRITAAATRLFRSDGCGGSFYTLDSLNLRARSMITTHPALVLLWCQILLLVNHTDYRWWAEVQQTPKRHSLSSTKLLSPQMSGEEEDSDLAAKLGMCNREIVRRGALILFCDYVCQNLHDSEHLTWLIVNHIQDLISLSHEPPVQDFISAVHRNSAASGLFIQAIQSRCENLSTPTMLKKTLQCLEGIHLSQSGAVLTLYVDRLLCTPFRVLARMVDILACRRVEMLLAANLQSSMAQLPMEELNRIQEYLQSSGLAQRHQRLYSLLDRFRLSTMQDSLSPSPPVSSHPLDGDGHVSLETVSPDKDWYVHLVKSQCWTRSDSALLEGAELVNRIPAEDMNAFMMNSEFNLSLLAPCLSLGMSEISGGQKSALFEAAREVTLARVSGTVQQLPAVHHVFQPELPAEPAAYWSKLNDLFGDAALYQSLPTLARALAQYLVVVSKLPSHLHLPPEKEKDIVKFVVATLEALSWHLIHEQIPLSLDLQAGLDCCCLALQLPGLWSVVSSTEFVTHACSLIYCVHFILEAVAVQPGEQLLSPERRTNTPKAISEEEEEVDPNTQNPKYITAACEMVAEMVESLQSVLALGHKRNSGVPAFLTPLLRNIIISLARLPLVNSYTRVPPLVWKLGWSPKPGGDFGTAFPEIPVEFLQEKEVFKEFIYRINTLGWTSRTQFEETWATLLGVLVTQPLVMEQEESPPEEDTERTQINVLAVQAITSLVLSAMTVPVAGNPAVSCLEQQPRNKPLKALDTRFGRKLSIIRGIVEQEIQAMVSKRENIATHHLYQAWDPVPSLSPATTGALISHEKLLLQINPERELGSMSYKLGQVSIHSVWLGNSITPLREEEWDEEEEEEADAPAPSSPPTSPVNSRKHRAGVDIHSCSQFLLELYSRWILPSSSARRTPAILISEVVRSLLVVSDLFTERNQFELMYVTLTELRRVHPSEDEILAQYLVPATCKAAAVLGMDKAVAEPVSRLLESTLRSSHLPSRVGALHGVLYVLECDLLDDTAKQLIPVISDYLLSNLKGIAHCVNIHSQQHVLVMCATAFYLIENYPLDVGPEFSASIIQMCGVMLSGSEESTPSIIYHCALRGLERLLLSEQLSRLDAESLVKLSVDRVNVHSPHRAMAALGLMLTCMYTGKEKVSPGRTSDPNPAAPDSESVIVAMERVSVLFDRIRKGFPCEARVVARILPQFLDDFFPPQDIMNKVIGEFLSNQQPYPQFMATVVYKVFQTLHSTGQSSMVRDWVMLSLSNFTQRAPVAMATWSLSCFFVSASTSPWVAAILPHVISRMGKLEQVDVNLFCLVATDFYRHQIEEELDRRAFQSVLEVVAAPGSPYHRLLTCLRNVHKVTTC
In short: as §1

MTR = MTR (human, UniProt Q99707 1-1265, limits assumed); experiment: IP/MS, LZTR1 wild type-FLAG, U87
Sequence of MTR (Q99707 whole entry): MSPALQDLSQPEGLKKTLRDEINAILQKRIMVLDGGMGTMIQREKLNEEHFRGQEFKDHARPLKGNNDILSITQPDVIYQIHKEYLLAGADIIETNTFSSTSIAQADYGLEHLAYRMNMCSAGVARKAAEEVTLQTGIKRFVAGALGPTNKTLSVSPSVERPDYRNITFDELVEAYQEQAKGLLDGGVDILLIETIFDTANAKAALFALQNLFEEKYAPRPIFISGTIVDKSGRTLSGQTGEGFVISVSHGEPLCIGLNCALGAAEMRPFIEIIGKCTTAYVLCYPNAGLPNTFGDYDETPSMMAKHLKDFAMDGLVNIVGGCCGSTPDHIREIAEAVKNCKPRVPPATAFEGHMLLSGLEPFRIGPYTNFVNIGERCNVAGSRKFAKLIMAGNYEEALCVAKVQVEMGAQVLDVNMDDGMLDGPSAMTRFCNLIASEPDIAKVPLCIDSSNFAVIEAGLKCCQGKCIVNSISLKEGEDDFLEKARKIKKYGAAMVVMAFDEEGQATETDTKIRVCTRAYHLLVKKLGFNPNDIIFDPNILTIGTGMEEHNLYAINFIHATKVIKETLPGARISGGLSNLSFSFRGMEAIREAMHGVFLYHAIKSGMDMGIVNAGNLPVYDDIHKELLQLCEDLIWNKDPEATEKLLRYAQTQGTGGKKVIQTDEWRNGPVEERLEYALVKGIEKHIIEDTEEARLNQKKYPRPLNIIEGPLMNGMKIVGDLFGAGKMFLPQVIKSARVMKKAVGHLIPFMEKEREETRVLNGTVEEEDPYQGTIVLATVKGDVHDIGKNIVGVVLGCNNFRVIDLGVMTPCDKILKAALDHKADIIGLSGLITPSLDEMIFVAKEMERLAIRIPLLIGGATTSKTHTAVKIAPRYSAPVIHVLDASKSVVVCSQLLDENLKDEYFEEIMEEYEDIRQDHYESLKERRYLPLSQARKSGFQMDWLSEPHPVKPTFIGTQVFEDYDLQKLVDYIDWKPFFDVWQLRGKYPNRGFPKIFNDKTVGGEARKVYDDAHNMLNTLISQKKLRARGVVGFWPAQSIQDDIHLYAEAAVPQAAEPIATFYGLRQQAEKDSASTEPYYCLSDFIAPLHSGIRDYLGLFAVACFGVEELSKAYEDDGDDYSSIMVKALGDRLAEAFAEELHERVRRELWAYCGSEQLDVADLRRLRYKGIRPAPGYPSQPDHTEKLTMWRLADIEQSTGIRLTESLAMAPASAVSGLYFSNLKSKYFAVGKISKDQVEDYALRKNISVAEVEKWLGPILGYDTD
In short: as §1

AMBRA1 = biological target: T1, AMBRA1 (human, UniProt Q9C0C7 1-1298, limits assumed); experiment: IP/MS, LZTR1 wild type-FLAG, U87
T1 sequence (looked up): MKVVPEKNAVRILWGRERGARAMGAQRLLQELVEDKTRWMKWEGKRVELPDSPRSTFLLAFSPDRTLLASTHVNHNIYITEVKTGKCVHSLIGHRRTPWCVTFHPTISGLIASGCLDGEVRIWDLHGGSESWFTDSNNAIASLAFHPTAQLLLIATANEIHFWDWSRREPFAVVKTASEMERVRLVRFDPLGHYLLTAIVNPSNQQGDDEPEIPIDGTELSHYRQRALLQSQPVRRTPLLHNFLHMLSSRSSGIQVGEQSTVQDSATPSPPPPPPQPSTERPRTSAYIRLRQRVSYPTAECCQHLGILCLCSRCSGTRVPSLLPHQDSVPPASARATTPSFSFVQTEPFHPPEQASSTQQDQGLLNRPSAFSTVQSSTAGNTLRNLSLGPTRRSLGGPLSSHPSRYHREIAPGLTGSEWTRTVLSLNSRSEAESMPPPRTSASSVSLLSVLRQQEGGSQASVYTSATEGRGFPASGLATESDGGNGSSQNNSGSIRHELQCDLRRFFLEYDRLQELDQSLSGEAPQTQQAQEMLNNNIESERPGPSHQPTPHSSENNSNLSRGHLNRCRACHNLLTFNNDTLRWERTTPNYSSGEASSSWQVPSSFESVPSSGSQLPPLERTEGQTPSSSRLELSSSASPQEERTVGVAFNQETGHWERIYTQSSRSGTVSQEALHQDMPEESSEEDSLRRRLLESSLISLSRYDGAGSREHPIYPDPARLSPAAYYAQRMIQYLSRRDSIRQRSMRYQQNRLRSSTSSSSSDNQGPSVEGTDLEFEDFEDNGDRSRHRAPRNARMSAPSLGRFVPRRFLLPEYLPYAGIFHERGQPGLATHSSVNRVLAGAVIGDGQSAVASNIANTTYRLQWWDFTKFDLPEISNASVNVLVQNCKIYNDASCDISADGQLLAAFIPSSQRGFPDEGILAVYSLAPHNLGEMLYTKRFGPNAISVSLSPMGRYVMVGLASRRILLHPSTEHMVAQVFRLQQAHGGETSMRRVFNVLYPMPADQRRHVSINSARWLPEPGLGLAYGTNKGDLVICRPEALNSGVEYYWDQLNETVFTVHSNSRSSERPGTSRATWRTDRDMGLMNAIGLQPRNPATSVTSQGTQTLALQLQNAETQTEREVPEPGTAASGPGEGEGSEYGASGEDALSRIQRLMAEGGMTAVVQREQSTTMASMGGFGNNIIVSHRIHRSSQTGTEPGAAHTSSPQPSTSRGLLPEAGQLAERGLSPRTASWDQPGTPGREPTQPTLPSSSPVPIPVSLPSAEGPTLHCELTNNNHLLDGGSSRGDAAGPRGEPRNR
In short: as §1

AXL = AXL (human, UniProt P30530 26-894, limits assumed); experiment: IP/MS, LZTR1 R810W-FLAG, U87; spectral counts >2-fold against wild type
Protocol: (§2) Lysates were immunoprecipitated with FLAG affinity matrix and eluted with FLAG peptide. […] Protein gel slices were excised and in-gel digestion performed as previously described (83), with minor modifications. Gel slices were washed with 1:1 A cetonitrile and 100 mM ammonium bicarbonate for 30 min then dehydrated with 100% acetonitrile for 10 min until shrunk. The excess acetonitrile was then removed and the slices dried in speed-vacuum at room temperature for 10 min. Gel slices were reduced with 5 mM DTT for 30 min at 56° C. in an air thermostat, cooled down to room temperature, and alkylated with 11 mM IAA for 30 min with no light. Gel slices were then washed with 100 mM of ammonium bicarbonate and 100% acetonitrile for 10 min each. Excess acetonitrile was removed and dried in a speed-vacuum for 10 min at room temperature and the gel slices were re-hydrated in a solution of 25 ng/μl trypsin in 50 mM ammonium bicarbonate for 30 min on ice and digested overnight at 37° C. in an air thermostat. Digested peptides were collected and further extracted from gel slices in extraction buffer (1:2 ratio by volume of 5% formic acid:acetonitrile) at high speed, shaking in an air thermostat. […] The following modifications were used for protein identification and quantification: oxidation of methionine (M), acetylation of the protein N-terminus, and deamination for asparagine or glutamine (NQ). […]

EGFR = biological target: T2, EGFR (human, UniProt P00533 25-1210); experiment: as above
T2 construct: also called epidermal growth factor receptor
Protocol: as §2

Measured: binding result

B1: LZTR1-FLAG (other, human, UniProt Q8N653 1-840, looked up)
chain: MAGPGSTGGQIGAAALAGGARSKVAPSVDFDHSCSDSVEYLTLNFGPFETVHRWRRLPPCDEFVGARRSKHTVVAYKDAIYVFGGDNGKTMLNDLLRFDVKDCSWCRAFTTGTPPAPRYHHSAVVYGSSMFVFGGYTGDIYSNSNLKNKNDLFEYKFATGQWTEWKIEGRLPVARSAHGATVYSDKLWIFAGYDGNARLNDMWTIGLQDRELTCWEEVAQSGEIPPSCCNFPVAVCRDKMFVFSGQSGAKITNNLFQFEFKDKTWTRIPTEHLLRGSPPPPQRRYGHTMVAFDRHLYVFGGAADNTLPNELHCYDVDFQTWEVVQPSSDSEVGGAEVPERACASEEVPTLTYEERVGFKKSRDVFGLDFGTTSAKQPTQPASELPSGRLFHAAAVISDAMYIFGGTVDNNIRSGEMYRFQFSCYPKCTLHEDYGRLWESRQFCDVEFVLGEKEECVQGHVAIVTARSRWLRRKITQARERLAQKLEQEAAPVPREAPGVAAGGARPPLLHVAIREAEARPFEVLMQFLYTDKIKYPRKGHVEDVLLIMDVYKLALSFQLCRLEQLCRQYIEASVDLQNVLVVCESAARLQLSQLKEHCLNFVVKESHFNQVIMMKEFERLSSPLIVEIVRRKQQPPPRTPLDQPVDIGTSLIQDMKAYLEGAGAEFCDITLLLDGHPRPAHKAILAARSSYFEAMFRSFMPEDGQVNISIGEMVPSRQAFESMLRYIYYGEVNMPPEDSLYLFAAPYYYGFYNNRLQAYCKQNLEMNVTVQNVLQILEAADKTQALDMKRHCLHIIVHQFTKVSKLPTLRSLSQQLLLDIIDSLASHISDKQCAELGADI
notes: Expressed in HEK 293T, HeLa or U87 cells; used as cell lysate; also called LZTR1 wild type-FLAG; LZTR1 WT; not shown: FLAG tag at the C-terminus
not listed: AXL | EGFR
binds: all other assays above

B2: LZTR1 R810W-FLAG (other, human, UniProt Q8N653 1-840, looked up)
chain: MAGPGSTGGQIGAAALAGGARSKVAPSVDFDHSCSDSVEYLTLNFGPFETVHRWRRLPPCDEFVGARRSKHTVVAYKDAIYVFGGDNGKTMLNDLLRFDVKDCSWCRAFTTGTPPAPRYHHSAVVYGSSMFVFGGYTGDIYSNSNLKNKNDLFEYKFATGQWTEWKIEGRLPVARSAHGATVYSDKLWIFAGYDGNARLNDMWTIGLQDRELTCWEEVAQSGEIPPSCCNFPVAVCRDKMFVFSGQSGAKITNNLFQFEFKDKTWTRIPTEHLLRGSPPPPQRRYGHTMVAFDRHLYVFGGAADNTLPNELHCYDVDFQTWEVVQPSSDSEVGGAEVPERACASEEVPTLTYEERVGFKKSRDVFGLDFGTTSAKQPTQPASELPSGRLFHAAAVISDAMYIFGGTVDNNIRSGEMYRFQFSCYPKCTLHEDYGRLWESRQFCDVEFVLGEKEECVQGHVAIVTARSRWLRRKITQARERLAQKLEQEAAPVPREAPGVAAGGARPPLLHVAIREAEARPFEVLMQFLYTDKIKYPRKGHVEDVLLIMDVYKLALSFQLCRLEQLCRQYIEASVDLQNVLVVCESAARLQLSQLKEHCLNFVVKESHFNQVIMMKEFERLSSPLIVEIVRRKQQPPPRTPLDQPVDIGTSLIQDMKAYLEGAGAEFCDITLLLDGHPRPAHKAILAARSSYFEAMFRSFMPEDGQVNISIGEMVPSRQAFESMLRYIYYGEVNMPPEDSLYLFAAPYYYGFYNNRLQAYCKQNLEMNVTVQNVLQILEAADKTQALDMKRHCLHIIVHQFTKVSKLPTLWSLSQQLLLDIIDSLASHISDKQCAELGADI
notes: Stably expressed in U87 cells by lentivirus; also called LZTR1-FLAG-R810W; LZTR1 RW; not shown: FLAG tag
binds: AXL | EGFR
